{"source": "patent US20060105953", "system": "UbG-DsRx"}
{"substance": "caspase-3", "values": [{"measurement": "red fluorescence (DsRed) in live transgenic zebrafish embryos", "value": "A control embryo (FIG. 1b) injected with a construct where the linker does not contain a cleavage site doesn't express any detectable red fluorescence (FIG. 1c)"}]}
